{
  "source": "paper PMC10154249",
  "about": "(2023)",
  "target": "His-UPCP (HIV | human)",
  "experiment": "MST",
  "data": [
    {"binder": "Flag-PTBP1 (natural protein) not shown", "values": [
      {"measurement": "Kd", "result": 4.63, "unit": "µM"}
    ]}
  ]
}
